# Experimental data: patent US6759384 (AVENTIS PHARMACEUTICALS, dated 2004)
# Starred links: 1 amine or outer side, 2 acyl side, 3 side chain; linkers in the order of their positions; H or OH if unused. Non-standard residues stand in square brackets, D forms with d. No end group written: not given here. *: point of attachment. (iBu)Y = N-alpha-isobutyl-tyrosine, CC(C)CN([C@@H](Cc1ccc(O[*:3])cc1)C(=O)[*:2])[*:1]; Orn(N^δ-C3H7N) = ornithine-derived dimethylamidinium (N-delta-C3H7N); Dab(N^γ-C3H7N) = Dab-derived dimethylamidinium (N-gamma-C3H7N); dTyr(Me) = COc1ccc(C[C@@H](N[*:1])C(=O)[*:2])cc1; dNMeY = CN[C@H](Cc1ccc(O)cc1)C(=O)O; Tos = Cc1ccc(S(=O)(=O)*)cc1; Tfa = O=C(C(F)(F)F)*; Sar = CNCC(=O)O
# B1: w-L-R-L-A-NH2 (peptide)
# peptide: [dW]LRLA-NH2
# modifications: N-terminus assumed
# SMILES: CC(C)C[C@H](NC(=O)[C@H](N)Cc1c[nH]c2ccccc12)C(=O)N[C@@H](CCCNC(=N)N)C(=O)N[C@@H](CC(C)C)C(=O)N[C@@H](C)C(N)=O
# B2: Tos-G-I-R-V-Sar-NH2 (peptide)
# peptide: Tos-GIRV[Sar]-NH2
# SMILES: CC[C@H](C)[C@H](NC(=O)CNS(=O)(=O)c1ccc(C)cc1)C(=O)N[C@@H](CCCNC(=N)N)C(=O)N[C@H](C(=O)N(C)CC(N)=O)C(C)C
# Target: human factor Xa (Enzyme Research Laboratories, Inc.) (human, UniProt P00742 41-179; P00742 235-488, limits assumed)
# Assay: chromogenic FXa inhibition
# How it was run: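 Human FXa (0.5 nM) preincubated 10 min with inhibitor in TBS-P (pH 7.8, 200 mM NaCl, PEG-8000), then S-2765 added (140 μM). Initial hydrolysis rate read at 405 nm, 25° C.; IC50 by linear regression of relative rate vs log concentration.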
# Sequence of human factor Xa (Enzyme Research Laboratories, Inc.) (P00742 41-179 limits assumed, chain 1 of 2): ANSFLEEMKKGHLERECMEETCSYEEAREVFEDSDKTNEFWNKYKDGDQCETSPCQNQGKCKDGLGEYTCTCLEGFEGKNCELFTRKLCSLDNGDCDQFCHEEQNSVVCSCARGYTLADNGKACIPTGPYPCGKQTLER
# Sequence of human factor Xa (Enzyme Research Laboratories, Inc.) (P00742 235-488 limits assumed, chain 2 of 2): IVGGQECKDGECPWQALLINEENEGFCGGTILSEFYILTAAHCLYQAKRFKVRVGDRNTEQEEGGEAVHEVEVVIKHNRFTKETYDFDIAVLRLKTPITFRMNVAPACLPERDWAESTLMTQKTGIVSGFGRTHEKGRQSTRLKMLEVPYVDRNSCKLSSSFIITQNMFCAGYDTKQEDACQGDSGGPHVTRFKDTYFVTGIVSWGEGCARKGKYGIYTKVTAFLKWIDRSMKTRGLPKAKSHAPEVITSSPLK
row,Binder,Ki
1,B1,< 100 µM
2,XIRLP (N-term Ac; N-(2-CF3-Bzl) on Y1; C-term NH2) [Ac-(2-CF3-Bzl)Y-I-R-L-P-NH2],< 100 µM
3,{Ph‑CH2CH2CO}-IRLA-NH2 [Ph-CH2CH2CO-I-R-L-A-NH2],< 100 µM
4,WLRLA-NH2 [W-L-R-L-A-NH2],< 100 µM
5,B2,< 100 µM
6,WLRLAGGGGG-NH2 [W-L-R-L-A-G-G-G-G-G-NH2],< 100 µM
7,WLRVAGGGGG-NH2 [W-L-R-V-A-G-G-G-G-G-NH2],< 100 µM
8,YIRLMEMT-NH2 [Y-I-R-L-M-E-M-T-NH2],< 100 µM
9,"XIRLP (N-(3,3-DiMe-nBu) on Y1; C-term NH2) [(3,3-DiMe-nBu)Y-I-R-L-P-NH2]",< 100 µM
10,Tfa-[dY]IRLP-NH2 [Tfa-y-I-R-L-P-NH2],< 100 µM
11,YIRLTKMW-NH2 [Y-I-R-L-T-K-M-W-NH2],< 100 µM
12,WIRNP-NH2 [W-I-R-N-P-NH2],< 100 µM
13,WIRTP-NH2 [W-I-R-T-P-NH2],< 100 µM
14,NGYIRLIH-NH2 [N-G-Y-I-R-L-I-H-NH2],< 100 µM
15,"XIRLP (N-term Ac; N-(1,2,3,6-4H-Bzl) on Y1; C-term NH2) [Ac-(1,2,3,6-4H-Bzl)Y-I-R-L-P-NH2]",< 100 µM
16,Tfa-[(iBu)Y]I[Dab(N^γ-C3H7N)]LP-NH2 [Tfa-(iBu)Y-I-Dab(N^γ-C3H7N)-L-P-NH2],< 100 µM
17,YIRL-NH2 [Y-I-R-L-NH2],< 100 µM
18,XIRLP (N-(2-Me-nPentyl) on Y1; C-term NH2) [(2-Me-nPentyl)Y-I-R-L-P-NH2],< 100 µM
19,YIRLAA-NH2 [Y-I-R-L-A-A-NH2],< 100 µM
20,YIRLAAF-NH2 [Y-I-R-L-A-A-F-NH2],< 100 µM
21,[dNMeY]IRLP-NH2 [(Me)y-I-R-L-P-NH2],< 100 µM
22,XIRLP (N-(2-Me-nBu) on Y1; C-term NH2) [(2-Me-nBu)Y-I-R-L-P-NH2],< 100 µM
23,XIRLP (N-(2-CF3-Bzl) on Y1; C-term NH2) [(2-CF3-Bzl)Y-I-R-L-P-NH2],< 100 µM
24,YIRLP-NH2 [Y-I-R-L-P-NH2],< 100 µM
25,SYIRLP-NH2 [S-Y-I-R-L-P-NH2],< 100 µM
26,"XIRLP (N-term Ac; N-(2,3-DiMe-nPentyl) on Y1; C-term NH2) [Ac-(2,3-DiMe-nPentyl)Y-I-R-L-P-NH2]",< 100 µM
27,YIRYRNPI-NH2 [Y-I-R-Y-R-N-P-I-NH2],< 100 µM

row,Binder,Ki
1,YIREFSDY-NH2 [Y-I-R-E-F-S-D-Y-NH2],< 100 µM
2,XIRLP (N-(2-Et-nBu) on Y1; C-term NH2) [(2-Et-nBu)Y-I-R-L-P-NH2],< 100 µM
3,XIRLP (N-(Chx-CH2) on Y1; C-term NH2) [(Chx-CH2)Y-I-R-L-P-NH2],< 100 µM
4,Tfa-[(iBu)Y]I[Orn(N^δ-C3H7N)]LP-NH2 [Tfa-(iBu)Y-I-Orn(N^δ-C3H7N)-L-P-NH2],< 100 µM
5,WFREMGGGGG-NH2 [W-F-R-E-M-G-G-G-G-G-NH2],< 100 µM
6,XIRLP (N-(2-Me-Bzl) on Y1; C-term NH2) [(2-Me-Bzl)Y-I-R-L-P-NH2],< 100 µM
7,"XIRLP (Y1=Y(3,5-Br); C-term NH2) [Y(3,5-Br)-I-R-L-P-NH2]",< 100 µM
8,YIRVAQLY-NH2 [Y-I-R-V-A-Q-L-Y-NH2],< 100 µM
9,"XIRLP (N-term Ac; N-(2,3-DiMe-nPentyl) on Y1; Y1=Y(SO3H); C-term NH2) [Ac-(2,3-DiMe-nPentyl)Y(SO3H)-I-R-L-P-NH2]",< 100 µM
10,[dTyr(Me)]IRLP-NH2 [y(Me)-I-R-L-P-NH2],< 100 µM
11,TFGYIRKA-NH2 [T-F-G-Y-I-R-K-A-NH2],< 100 µM
12,XIRLP (N-term Ac; N-(2Et-nBu) on Y1; C-term NH2) [Ac-(2Et-nBu)Y-I-R-L-P-NH2],< 100 µM
13,YIRLAAFT-NH2 [Y-I-R-L-A-A-F-T-NH2],< 100 µM
14,{Ph‑CH2CH2CH2‑CO}-IRLA-NH2 [Ph-CH2CH2CH2-CO-I-R-L-A-NH2],< 100 µM
15,Tfa-YIRLP-NH2 [Tfa-Y-I-R-L-P-NH2],< 100 µM
16,YIRVMNHR-NH2 [Y-I-R-V-M-N-H-R-NH2],< 100 µM
17,XIRLP (N-term Ac; N-(2-CF3-Bzl) on Y1; Y1=Y(SO3H); C-term NH2) [Ac-(2-CF3-Bzl)Y(SO3H)-I-R-L-P-NH2],< 100 µM
18,"XIRLP (Y1=Y(3,5-I); C-term NH2) [Y(3,5-I)-I-R-L-P-NH2]",< 100 µM
19,"XIRLP (N-term Ac; N-(1,2,3,6-4H-Bzl) on Y1; Y1=Y(SO3H); C-term NH2) [Ac-(1,2,3,6-4H-Bzl)Y(SO3H)-I-R-L-P-NH2]",< 100 µM
20,{Ph‑CH═CH‑CO}-IRLA-NH2 [Ph-CH═CH-CO-I-R-L-A-NH2],< 100 µM
21,YRYPRDRN-NH2 [Y-R-Y-P-R-D-R-N-NH2],< 100 µM
22,XIRLP (N-term Tfa; Y1=Y(Me) O-methyl tyrosine; C-term NH2) [Tfa-Y(Me)I-R-L-P-NH2],< 100 µM
23,{4‑MeO‑C6H4‑CO}-IRLA-NH2 [4-MeO-C6H4-CO-I-R-L-A-NH2],< 100 µM
24,YLRFP-NH2 [Y-L-R-F-P-NH2],< 100 µM
25,YIRIYERE-NH2 [Y-I-R-I-Y-E-R-E-NH2],< 100 µM
26,YIRLPGLL-NH2 [Y-I-R-L-P-G-L-L-NH2],< 100 µM
